Assay: label from the status in PepcDB records
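Further: failed if final PepcDB status was selected cloned or expressed and not failed if soluble or beyond.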

Row | Sequence | protein production
1 | MSKNYQVLAKKIIDIVGVDNVESVTHCQTRLRFVVKDPKQIDKAALEDLDEVKGVFFGSGQYQVIIGTGVVNDVYDAIEKLHLVNAIYSQETTTTPTPDNQKSPLQRFMAMLSGIFIPIIPVIAATGLFLGLQSALTNNQVLQLFGTSSAAIPASLNTVISVLTGTVFSFLPALIVWSTFRYFKGTPIVGIVIGLMLVSPSLPNAYSVAGGTAKAIMLFDRIPVIGSQGSVLTALVAGFLGSKLEHYFHKHVPNVLDQILTPFLTMLVTFGIMILGVGPVVHWIENVMISGVEGLINLPFGIGGFLIGAAYPLMVLVGIHQMMIAIETSLLAATKLNPLITLEAMYGFANLGVALAMILRAKSQKAKANFIGAFSSQLFGVSEPTLFGVLIRYNFKPLVVTVLTSGIGAGVLSVMSVAANSYGLAVVPSYLMYIYNVRDLLIYTVVSLLTVAVAFIATNMFAIPKDILKSDQVQPKIVDDTIFSPVSGKSIALSTVNDPVFASKMMGDGIAIKPQEQGPVKVYAPQSGQMSVVADTGHAYGLTTNNGVELLIHIGIDTVSLKGQGFKVIVKPGQTVQKGDLLGEFDSTVLKAANLDDTVMVIVTNSKNYQRIESEPNQSIQSGAALLAIQGRPEMTTATAS | failed
2 | MSSEHIDEVSGISTTGHEWDGIRELNNPLPRWWVITFYITVAWAVAYTIAYPAWPMLSSATKGVLGYSSRNAVKIELAAAEAAKGKYVAAIQQKTVSEIAADDALREFAVAAGGATFKVNCVQCHGSGAQGSKGFPNLNDDDWLWGGTTEQIQQTIAHGIRFASDPDTRQSEMPPFGDIITPEQIAQVGAYVASLSGKVQDASLIEPGAKVFGENCVACHGDNAKGNKELGAPNLTDAIWLYAPGETAIAVQVRAPKHGVMPAWIGRLGETKVKELAVYVHSLGGGE | failed
3 | MGSDVHVWKTWFITSSDRGFTWSTPAPLVNDDILPRGPVKNKLLLASNGAWIAPGSIESPERWRAFVDRSSDEGKHWSISFVPLEPDNAISGTNVALWDGIKKGRLWECCLENLLRWDGVIQPTLWESSPGHIHMLLRSTRGAIFRSDSIDYGATWSVARATSLPNNNSGIDLVSMQDGTLILALNPVNGNWGKRYPLSLIASQDNGESWLPLLDLESDHGEYSYPAIISEGGIVHITYTWNRKLEHHHHHH | not failed
4 | MSNTIIRSLCVVLFGIAAVPGIADAQSSAYTNSGAELFAGPAPDYPVVAQLPPGTAVDVFGCLSDYSWCDVALPGVRGWIDAQQLDYPYQGNYVPLLEYGAIIGVPVTGFAIGTYWDRYYRHRPWFHDRDRWEHRAEPRVGPGGMPPAYYGRPQPGWPAQREPRGAPPVQHDARPSATRGGWNGPNRAPAPQVAPAPARAPAPMPAPAPMPAPAPIPGAAGVRQPAPPPAQPAQPAPSGGAVQMMPPAHQGGGGYGGRPQGGGDGGGNHGGGGGRGRSDEFRR | failed
5 | MDTVILITVIIVIVGLAFDFINGFHDIANAVATSISTRALKPRVAIGIAAVMNFLGAISFTGVAESLTKSIVDPFSLNNGEFVVLCGLIAAVIWNLMTWLVGMPSSSSHALIGAIAGASIASASSFSVLNWSGFTTIIIALIISPIIGFTVGYLIYSLFKHLFHDKKLGKMNRRFRFIQIGTAAAQAYSHGTNDAQKTMGIITLALVASGLLKESAGIPFWVQVSCAASMAIGSSVGGYRIIKTVGTKIMKITPVTGVASDLSSLSVIMTATLIHLPVSTTQVIDSSIMGVGTANHKKEVNWRTGKNMVVTWFITLPLAGLLAAVVYWISAAIFL | failed
6 | MQIGKVTGSLWATRKDEKLNGLKLLLVEITDEVEDKRHSIVAADNAGAGNGDLVLVTTGSAARASTGDNTIPVDACIVGIIDSVERYGLEHHHHHH | failed
7 | MHTDTERCVRAVQSKDARFDGWFFTAVLTTGIYCRPSCPVVPPKPGNMTFYPSAAACQQAGFRACKRCRPDTSPGSPEWNRRADLTARAMRLIADGVVDREGVPGLASRLGYSTRQVERQLLAELGAGPLALARAQRAQTARLLIETTPLPMADIAFAAGFSSIRTFNDTVREVYALSPSELRTRAPRNRRAATAPGALSLRLPFRAPLNPDNLFGHLAATAVPGVEEWRDGAYRRTLRLPYGHGIVALTPNPDHIACRLTLSDLRDLTVAISRCRRLLDLDADPTAIDDQLRADPLLAPLVDKAPGRRVPRTVDEAEFAVRAVLGQQVSTAAARTHAARLVTAHGDPVDDPEGGLTHLFPSTEALAAVDPETLAMPRTRRTTFTTLVAHLADGSVNPGVESDWAETRARLLALPGFGPWTADVIAMRALGDPDAFLPTDLGIRRAAAELGLPSTPAALTARAAAWRPWRAYAVQYLWATDDHPINFLPV | failed
8 | MDPIESVEYNGFETSNGNVDHGWKKVVYPKRHRKQKQADQATANGGKTVASNGTVANGGDNVFRSLEEQAEDRRRRILAAKMTAIDSDDDGVVRSKHRSNGYGDDGYDFDGSDDEIATLKVEEVKKPKPKKEKKPKVSLPEAASKIDPLNLEAFLVEASESYASQPEIQLMRFADYFGRALSGVSSVQFPWVKMFKESPLSKLIEVPLAHIPEPVYKTSVDWINHRPIEALGAFVLWAFDCILTDLAAQQGGAKGGKKGGQQTTSKSQVAIFVALAMVLRRKPDALTNVLPTLRENPKYQGQDKLPVTVWMMAQASQGDIAVGLYSWAHNLLPVVGNKNCNPQSRDLILQLVEKILTNPKARTILVNGAVRKGERLIPPPSFEILLRLTFPASSARVKATERFEAIYPLLKEVALAGAPGSKAMKQVTQQIFTFALKLAGEGNPVLAKEATAIAIWSVTQNFDCCKHWDNLYKENLEASVAVLKKLVEEWKEHSVKLSSSPNDALTLNRTMKSFRLKNEEVITEGGANASLYKEADKSCKTISGRLSRGSGCLKGTAITLVFLAAAGAAAAAVLSSNPEVTNELKNLVDSLELHEYINKYTEVISTALKK | failed
9 | MAINRSSDHESDENTRLYHPYQNYQVPIKSQYLYKLPTSPEFLFTEESLKQRRSWGENLTFYTGTGYLAGSVAGASAGIFSGIKSFENGDTTKLKINRILNSSGQAGRTWGNRVGIVGLIYAGIESGVVAVTDKDDVWTSVVAGLGTGAVFRAARGVRSAAVAGAFGGIAAGAVVAGKQVFKRDPERGSITLDP | failed
10 | AIAPSDLAKKKAAKKKEAAKARGRTRKPEDGVNGDAEKPEIQENGAAEVNGVDSLAKELDEFELKKTEARAVTGVLASHPNSTDVHISSLSLTFHGQELLSDTSLELNSGRRYGLIGLNGTGKSMLLSAISHREVPIPEHIDIYHLTREMAPSEKTALQCVMEVDEERIKLEKEAERLAHEDSECEKLMELYERLEELDADKASMRASRILHGLGFTTSMQQKKLKDFSGGWRMRVALARALFLKPFMLLLDEPTNHLDLDACVWLEEELSQFKRILVLISHSQDFLNGVCTNIIHLHQRKLKYYTGNYDQYVKTREELEENQMKRFNWEQDQIAHMKNYIARFGHGSAKLARQAQSKEKTLQKMVASGLTERVVNDKTLSFYFPPCGKIPPPVIMVQNVSFRYSENTPYIYKNLEFGIDLDTRVALVGPNGAGKSTLLKLLTGELLPSDGMIRKHSHVKIGRYHQHLTEQLELDLSPLEYMMKCYPEIKEKEEMKKIIGRYGLTGKQQVSPIRNLSDGQKCRVCFAWLAWQNPHMLFLDEPTNHLDIETIDALAEAINDFEGGMMLVSHDFRLIQQVAQEIWVCEKQTITKWSRDILAYKEHLKSKIDKQMHDL | failed
11 | MTEYKQEQEMEIEALEAILMDEFKEIHSSESGLNTSNRCFQITVTPQDDELEELAIPPVQLALVFSHTENYPDEAPLLDVKSIRGIHVSDLTILKEKLEQEASENLGMAMIYTLVSSAKDWLSEHYGQDDAAEFAEVEAAKEDEVIVPHGEPVTLETFLAWRERYEAELALERAKLMPESALTAPKEKKLTGRQWFESGRGRGTVVIADEEDEEEDEEDIDFEDEDFEDDEEDMLEHYLAEKSDSSAPPTRT | failed
12 | MAAMPKPAAFWNDRFANEEYVYGEAPNRFVASAARTWLPEAGEVLLLGAGEGRNAVHLAREGHTVTAVDYAVEGLRKTERLATEAGVEVEAIQADVREWKPARAWDAVVVTFLHLPADERPGLYRLVQRCLRPGGRLVAEWFRPLEHHHHHH | failed
13 | MAARGFRAGADHLRHQFCPPLVDPHRPWTARMKLLALSGSLRADSVNTALLRALAEAAPAGVEVCFFDGLRDLPLFNPDAEERENAAVTAWRAALRGADAVVISSPEYAHGIPGAFKNALDWVVGSAEFDGKPTLLLCASARPQHAPAQLAEVLRTMGARVQGPHLLDLPGNVAAAQSALRTPAQQAEARELLAALLP | failed
14 | MEDIFSKRKTLRTIKADTSDYFIPLFHTLAVFLSTKETIITKRFLEHIMKNLIALTLLLGGSTLLCAQKPAKTPATYKPVKSEMYRKGWIDFNKNGVKDVYEDPSAPLEARIENLLQQMTLDEKTCQMVTLYGYKRVLKDDLPTPEWKELLWKDGIGAIDEHLNGFQQWGLPPSDNAYVWPASRHAWALNEVQRFFVEDTRLGIPVDFTNEGIRGVESYRATNFPTQLGLGHTWNRELIRQVGLITGREARMLGYTNVYAPILDVGRDQRWGRYEEVYGESPYLVAELGIEMVRGLQHNHQVAATGKHFAAYSNNKGAREGMARVDPQMSPREVENIHIYPFKRVIREAGMLGVMSSYNDYDGIPVQGSYYWLTTRLRGEMGFRGYVVSDSDAVEYLYTKHGTAKDMKEAVRQSVEAGLNVRCTFRSPDSFVLPLRELVKEGGLSEEVINDRVRDILRVKFLIGLFDAPYQTDLADADREVEKEENEAIALQASRESIVLLKNAGELLPLDINSTKKIAVCGPNANEEGYALTHYGPLAVEVTTVLEGIQEKTKGKAEVLYTKGCDLVDAHWPESEIIDYPLTDDEQAEIDKAVENARQADVAIVVLGGGQRTCGENKSRTSLDLPGRQLQLLQAIQATGKPVVLILINGRPLSINWADKFVPAILEAWYPGSKGGTALADILFGDYNPGGKLTVTFPKTVGQIPFNFPCKPSSQIDGGKNPGPTGNMSRINGALYPFGYGLSYTTFEYSDLDITPRVITPNESATVRLKVTNTGKRAGDEVVQLYIRDVLSSITTYEKNLAGFQRIHLEPGEAQELSFTIDRKHLELLDADMKWVVEPGDFVLMAGASSEDIRLNGTLTVEDYQTRAKAIEAQKPAKRVSASTNPEDAENVLDEKINTAWQGNKGDYITFALKNGAKVDKVAIAFTRDNNLPATFEIQLSGGGGQFLTVYSGTVSEYGKLISYPFKGTTASDLRIVLNDDRVSIAEVKF | failed
15 | MSFSFLFILTAGMVAAFNPCGIALLPSYISYLIGGETKDHSFRYAIFKGLGLGGAMTTGFLTIFVLAGLLIGGLGSALTGIFPILSLVMGILIALLGLGMLFGKHLPIKIGSFQVKPGKWSIYFYGIAYAVTSLGCTLPAFMLVVSASLNDNSVTAVIIKFIIYSLGMGIVVTAITMVSLISRQLVQKFLHNYMGSIQKIAAVVIFLSGLYMAYYWYFGSGGICTF | failed
16 | MSNIDFDKYRILLVNSYFQSRNAKITRFWNRATTNAKDIFHGIRTRKEFFSKIIRDFQTEFGEDFIEYLAGGELIGGITNILPIYENKMGVMERSGHIIHKKSGYHLTPDILSEYLINDVFFDNTFLKHNIEELAKADNGVHILDILNSLLKVKDDREIYREATEKLLEMLNCLESDNEQKKRRIRAGIVVYYGFGNLNLVTAAIGEFWTDYGILDDGIDLQALGIFLGDISKLYEARICMERANEIFKNNGDKIGIATSLHNLGIILHLQGNYEEAMNKYNQSLKIDEELGERHRISMSLRFLGRIEYDKGNYDDAVKLYNQSLMIAEKLGDQSGIAKLLGELGIVLLHQGNYDEAIKLYNQSLMIAEKLGDQSGIAGTLYELGKVYLIQDNYGESIEVQKRSLKIKELLGDKYGIAHSLHALGVTHEVKKEYTFALLNYLEASSIYKELNSPYSKDVSKLITDLRDKMGNEQFNKACKEFGYVPPDNI | failed

From a protein production outcome set (Wang et al. 2014)
